Test results reported in US20220152103A1 (LEUCID BIO, published 2022).

Molecular target: T1, human HER2 on tumor cells (MDA-MB-468-HER2++ cells transduced with human HER2; T47D cells) (human, UniProt P04626 23-1255)
T1 construct: whole, on cells; also called ErbB2
Assay: flow cytometry sorting of MDA-MB-468-HER2++ cells

B1: ICR12 rat anti-human HER2 antibody (antibody, V domains shown)
VH: EVQLQESGPGLVKPSQSLSLTCSVTGYSITTDYWGWIRKFPGNKMEWMGYISYSGSTGYNPSLKSRISITRDTSKSQFFLQLNSVTTEDTATYYCARYSSLDYWGRGVMVAVSS
VL: DVVMTQTPPSLSVAIGQSVSISCKSSQSLVYSDGKTYLHWLLQSPGRSPKRLIYQVSNLGSGVPDRFSGTGSQKDFTLKISRVEAEDLGVYYCAQTTHFPLTFGSGTKLEIK
notes: VH and VL stand within it
B1: binds.
